Measured values taken from US20240309076A1.

Target: recombinant full-length human Tau (human) (UniProt P10636)
Assay: indirect ELISA, Tau coated on the plate

B1: NI-502.4P3 (antibody, V domains shown)
VH: EVQLVQSGAEVKKPGESLKISCKVSGYDFSKYWIGWVRQMPGKGLEWMGLIYPGDSDTRYSPSLEGQVSISADKSISAAYLQFSSLKASDSAMYYCVRKGYSAYLGGWFDPWGQGTLVTVSS
VL: DIQLTQSPDSLAASLGERVTINCRSSQNIFYNSNNKNFLAWYQQKAGQSPKLLIYWASTRESGVPDRFSGSGSGTDFTLTISGLQAGDVAVYFCQQYFTDAPTFGGGTKVEIK
EC50: 15 nM
